These results are taken from patent US20250213684A1, “COMBINATION THERAPIES COMPRISING ANTIBODY MOLECULES TO TIM-3” (Novartis AG, priority 2015, published 2025).

The target in one test is T1, murine TIM-3 (Mus musculus, UniProt Q8VIM0).
T1 construct: expressed in transfected cells
In words: Flow cytometry binding to murine TIM-3 expressed in cells. An excerpt:
(§1) Human TIM-3 has about 23% sequence identity with human TIM-4. Murine TIM-3 has about 66% sequence identity with human TIM-3 and 64% sequence identity with cynomolgus TIM-3.

Another test relates to K562 cells. In words: In vitro cytotoxic activity of purified NK cells against K562 cells. In kind it is cell-based. Conditions: antibody 10 μg/mL, 4-hour incubation with target cells. How it is done: 5.1 TIM-3 blockade enhances in vitro cytotoxic activity of purified NK cells TIM-3 is highly expressed endogenously on NK (natural killer) cells; its expression is further induced on activated NK cells. TIM-3 may act to restrain NK cell function, as do other inhibitory receptors. See Ndhlovu et al., Blood 119:3734, 2012, and Silva et al., Cancer Immunol Res 2:410, 2014.
In this assay. NK cells were purified from whole blood by negative bead selection and then incubated with antibody (10 μg/mL) at 37° C. After 1 hour, target K562 cells were added. After a 4-hour incubation at 37° C., the percent of K562 cell killing was measured.

Another test deals with T2, human TIM-3 (Homo sapiens, UniProt Q8TDQ0).
T2 construct: expressed in transfected cells
In words: Flow cytometry binding to cells transfected with human TIM-3. The settings on record: overall statement on the binding experiments of Example 1. The procedure: (§2) Panels of anti-TIM-3 antibodies were assayed for binding to TIM-3 expressing cells.
A general note: Flow cytometry measures light scatter and fluorescence of single cells or particles in a stream.

Test [1] addresses T3, TIM-3 binding to PtdSer (phosphatidylserine) (Homo sapiens, UniProt Q8TDQ0).
T3 construct: huTIM-3 extracellular domain fused to an Ig Fc region
In words: Blocking of TIM-3-Ig binding to PtdSer on anti-CD95-treated WR19L(Fas) cells. How it is done: TIM-3 binds to PtdSer (phosphatidylserine), a lipid that is typically present on the surface of apoptotic cells and not normal cells. Anti-CD95-treated WR19L(Fas) cells were cultured under conditions that promote PtdSer accumulation on the cell surface (flipping of PtdSer from the inner membrane to external exposure upon induction of apoptosis). TIM-3-Ig (huTIM-3 extracellular domain fused to an Ig Fc region) was added to the cells, and binding of TIM-3-Ig to the cells was assayed in the presence of various antibodies.

The subject of test [2] is PD-L1 IgV/TIM-3 mucin construct. In words: Domain analysis: binding to PD-L1 IgV/TIM-3 mucin chimeric construct. The settings on record: recombinant construct with TIM-3 IgV domain replaced. The procedure:
TIM-3 has an extracellular IgV domain and a mucin domain. […] 3A. […] The dissociation constant (KD) values were calculated for each tested antibody for the recombinant construct are shown in Table 8.

Another test relates to cynomolgus TIM-3. In words: Flow cytometry binding to cells transfected with cynoTIM-3. The arrangement: species or system cynomolgus monkey. Conditions: overall statement on the binding experiments of Example 1. How it is done: as §2
The subject of test [3] is IL-12 stimulated CD4+ cells. In words: IFN-gamma secretion and proliferation of IL-12 stimulated CD4+ cells. In kind it is cell-based. The settings on record: IL-12 stimulated CD4+ T cells. The procedure: The ability of four antibodies to enhance IFN-gamma secretion and proliferation of IL-12 stimulated CD4+ cells was assayed. This assay used the observation that a high dose of IL-12 induces expression of TIM-3 and yields an exhausted phenotype in T cells (see Yang et al., J. Clin. Invest. 122:4 p 1271 2012). […] After PMA/ionomycin restimulation and fixation and permeabilization of cells, the resulting IFN-gamma levels were measured by flow cytometry (y axis) and proliferation was measured by CFSE fluorescence (x axis). FIG. 5B quantifies IFN-gamma expression in cells exposed to these four antibodies.

The next test concerns the target T4, human TIM-4 (Homo sapiens, UniProt Q96H15).
T4 construct: expressed in transfected cells; host or cells: CHO cells
T4 sequence (Q96H15 25-378): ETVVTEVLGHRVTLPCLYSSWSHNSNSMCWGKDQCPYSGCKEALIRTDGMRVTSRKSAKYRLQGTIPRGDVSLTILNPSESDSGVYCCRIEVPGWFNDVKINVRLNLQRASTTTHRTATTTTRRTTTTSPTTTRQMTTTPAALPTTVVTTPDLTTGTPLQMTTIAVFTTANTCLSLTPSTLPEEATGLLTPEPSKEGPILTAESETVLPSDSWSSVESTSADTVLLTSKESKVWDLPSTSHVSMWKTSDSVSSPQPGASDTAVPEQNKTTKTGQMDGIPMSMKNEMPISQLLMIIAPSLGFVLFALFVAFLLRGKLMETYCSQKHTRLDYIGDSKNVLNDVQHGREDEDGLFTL
In words: Flow cytometry binding to human TIM-4 expressed in CHO cells.
Description: as §1

Test [4] concerns naïve T cell / dendritic cell co-culture. In words: Proliferation in autologous T-DC co-cultures (CFSE). In kind it is cell-based. Conditions: 0.01-25 μg/mL, four days, anti-CD3/CD28; vs no antibody and mouse IgG1 control. An excerpt:
TIM-3 can be expressed on dendritic cells (DCs) and T cells. Naïve T cells and dendritic cells were isolated from donor samples. Naïve T cells and conventional DCs were cocultured for four days in the presence of anti-CD3/CD28. […] Cell proliferation was detected by a CFSE proliferation assay, which relies on dilution of CFSE staining to detect proliferating cells.

T1 sequence (Q8VIM0 20-281): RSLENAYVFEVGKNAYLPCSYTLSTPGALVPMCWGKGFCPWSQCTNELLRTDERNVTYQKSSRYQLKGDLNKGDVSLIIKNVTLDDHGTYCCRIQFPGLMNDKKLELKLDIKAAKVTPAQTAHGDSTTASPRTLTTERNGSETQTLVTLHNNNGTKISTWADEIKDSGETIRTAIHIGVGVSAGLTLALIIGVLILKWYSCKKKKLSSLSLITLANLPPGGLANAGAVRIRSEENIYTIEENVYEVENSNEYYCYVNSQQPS

B1: ABTIM3: murine anti-TIM-3 antibody; VH SEQ ID NO: 1, VL SEQ ID NO: 2 (antibody, V domains shown)
VH: QVQLQQPGAELVKPGASVKMSCKASGYTFTSYNMHWIKQTPGQGLEWIGDIYPGNGDTSYNQKFKGKATLTADKSSSTVYMQLSSLTSEDSAVYYCARVGGAFPMDYWGQGTSVTVSS
VL: DIVLTQSPASLAVSLGQRATISCRASESVEYYGTSLMQWYQQKPGQPPKLLIYAASNVESGVPARFSGSGSGTDFSLNIHPVEEDDIAIYFCQQSRKDPSTFGGGTKLEIK
Take B1: the “cross-reactivity with murine TIM-3” value with murine TIM-3 was “not cross-reactive”. In the test on K562 cells, the “percent of K562 cell killing by NK cells” value was “elevated levels of K523 cell killing relative to anti-TIM-3 #2 or the isotype control”. Besides, the “affinity for human TIM-3” value in the test with human TIM-3 is recorded as “sub-nanomolar”. Besides, the “inhibition of binding of TIM-3 to PtdSer” value in test [1] was “inhibit the binding of TIM-3 to PtdSer”. Also, the “binding to the chimeric protein of FIG. 3A” value in test [2] was “do not substantially bind”. Also, the “affinity for cynomolgus TIM-3” value with cynomolgus TIM-3 is “sub-nanomolar”. Further, the proliferation result in test [3] (CFSE) is reported as “enhances”. Moreover, the IFN-gamma secretion result in [3] (flow cytometry) is recorded as “enhances”. Further, in the test with human TIM-4, the “binding to human TIM-4” value was “does not bind”. For the same molecule, in [4], the “proliferating cells (CFSE-diluted cells)” value is listed as “increase in proliferating cells”.
